T1: MMP-26 (human)
T1 sequence: ASDF


Target: T1, MMP-26 (human)
Test: cell-based or functional assay

| Binder | % Inhibition of JEG-3 cell invasion, 5 µg/ml (first test) | % Inhibition of JEG-3 cell invasion, 25 µg/ml (first test) | % Inhibition of JEG-3 cell invasion, 1 µg/ml (further test) | % Inhibition of JEG-3 cell invasion, 5 µg/ml (further test) | % Inhibition of JEG-3 cell invasion, 25 µg/ml (further test) | % Inhibition of JEG-3 cell invasion, 50 µg/ml (further test) |
| --- | --- | --- | --- | --- | --- | --- |
| D02 (antibody, human IgG4, V domains shown) VH: EVQLLESGGGLVQPGGSLRLSCAASGFTFSWYDMAWVRQAPGKGLEWVSRIVPSGGHTSYADSVKGRFTISRDNFKNTLYLQMNSLRAEDTAVYYCARRASRPEFFDYWGQGALVTVSS VL: DIQMTQSPSFLSASVGDRVTITCRASQGISTYLAWYQQKPGKAPKVLIYTASTLQSGVPSRFSGSGSGTEFTLTISSLQPEDFATYYCQQSYITPPEVTFGPGTKVDIKR | 36% | 25% | – | – | – | – |
| D04 (antibody, human IgG4, V domains shown) VH: EVQLLESGGGLVQPGGSLRLSCAASGFTFSDYQMMWVRQAPGKGLEWVSRISPSGGMTRYADSVKGRFTISRDNSKNTLYLPMNSLRAEDTAVYYCARSGPYYFDYWGQGTLVTVSS VL: DIQMTQSPSSLSASVGDRVAITCRASQSIDTYLNWYQQKPGKAPKLLIYAASKLEDGVPSRFSGSGTGTDFTLTIRSLQPEDFASYFCQQSYSSPGITFGPGTKVEIKR | 38% | 34% | 47% | 34% | 45% | 52% |
| D06 (antibody, human IgG4, V domains shown) VH: EVQLLESGGGLVQPGGSLRLSCAASGFTFSGYIMEWVRQAPGKGLEWVSVIVSSGGFTMYADSVKGRFTISRDNSKNTLYLQMNSLRAEDTAVYYCARVGDSKGGYYLDYWGQGTLVTVSS VL: DIQMTQSPSSLSASVGDRVTITCRTSQIINTYLNWYQQKPGKAPKLLIYAASTLQGGVPSRFSGSGSGTDFTLTIKSLQPDDFATYYCQQSYTSPRTFGQGTKVEIKR | 0% | 35% | – | – | – | – |

Next, values leading:

| % Inhibition of JEG-3 cell invasion, 5 µg/ml (first test) | % Inhibition of JEG-3 cell invasion, 25 µg/ml (first test) | % Inhibition of JEG-3 cell invasion, 1 µg/ml (further test) | % Inhibition of JEG-3 cell invasion, 5 µg/ml (further test) | % Inhibition of JEG-3 cell invasion, 25 µg/ml (further test) | % Inhibition of JEG-3 cell invasion, 50 µg/ml (further test) | Binder |
| --- | --- | --- | --- | --- | --- | --- |
| 36% | 35% | 56% | 50% | 76% | 53% | D08 (antibody, human IgG4, V domains shown) VH: EVQLLESGGGLVQPGGSLRLSCAASGFTFSFYAMWWVRQAPGKGLEWVSRIYSSGGKTWYADSVKGRFTISRDNSKNTLYLQMNSLRAEDTAVYYCARVGMSTYAFDIWGQGTMVTVSS VL: DIQMTQSPSSLSASVGDRVTITCRASQSISDYLNWYQQKPGKAPDLLIYAASSLQSGVPSRFSGSGSGTDFTLTVSSLQPEDFATYFCQQSYSIPLTFGGGTKVEITR |
| 21% | 36% | – | – | – | – | D07 (antibody, human IgG4, V domains shown) VH: EVQLLESGGGLVQPGGSLRLSCAASGFTFSEYNMFWVRQAPGKGLEWVSYIYSSGGSTDYADSVKGRFTISRDNSKNTLYLQMNSLRAEDTAVYYCARVGIAARPFDPWGQGTLVTVSS VL: QSELTQPASVSGSPGQSITISCTGTNSDIGGYNYVSWYQQHPGKVPKLLIFEVNNRPSGVSSRFSGSKSGDTASLTISGLQPEDEAVYYCGSFTVSVTYVFGTGTKVTVLG |

Reference: patent US7514534
